Laboratory results reported in article PMC6690965, “OsCAldOMT1 is a bifunctional O-methyltransferase involved in the biosynthesis of tricin-lignins in rice cell walls” (Scientific Reports, 2019).

Legend:
[1] = substrate: COc1cc(-c2cc(=O)c3c(O)cc(O)cc3o2)cc(O)c1O; test: HPLC/LC-MS O-methylation assay, Michaelis-Menten fit; type: biochemical, Oryza sativa; settings: 50 mM Tris-HCl pH 7.5, co-substrate S-adenosyl-L-methionine, 20 min, 10-200 µM substrate, 5'-O-methylation giving tricin
[2] = substrate: COc1cc(/C=C/C=O)cc(O)c1O; test: as above; type: biochemical, Oryza sativa; settings: 50 mM Tris-HCl pH 7.5, co-substrate S-adenosyl-L-methionine, 20 min, 10-200 µM substrate

B1: OsCAldOMT1 (Oryza sativa Japonica Group) (protein)
chain: MGSTAADMAAAADEEACMYALQLASSSILPMTLKNAIELGLLETLQSAAVAGGGGKAALLTPAEVADKLPSKANPAAADMVDRMLRLLASYNVVRCEMEEGADGKLSRRYAAAPVCKWLTPNEDGVSMAALALMNQDKVLMESWYYLKDAVLDGGIPFNKAYGMTAFEYHGTDARFNRVFNEGMKNHSVIITKKLLDLYTGFDAASTVVDVGGGVGATVAAVVSRHPHIRGINYDLPHVISEAPPFPGVEHVGGDMFASVPRGGDAILMKWILHDWSDEHCARLLKNCYDALPEHGKVVVVECVLPESSDATAREQGVFHVDMIMLAHNPGGKERYEREFRELARAAGFTGFKATYIYANAWAIEFTK
Km [1]: 68.2 ± 14.5 µM
kcat [1]: 158.5 ± 16.6 s⁻¹
Km [2]: 132.8 ± 21.3 µM
kcat [2]: 373.0 ± 37.9 s⁻¹
